Measured values from patent US10813984B2, “Aspartate-β-hydroxylase induces epitope-specific T cell responses in tumors” (Rhode Island Hospital, priority 2014, dated 2020).

How the values were obtained:
[1] = system: tumor-bearing mouse model; details: cited from earlier work
[2] = system: Treg cells; details: low doses; cited from earlier work
[3] = system: established orthotropic HCC; details: mice bearing established orthotropic HCC; cited from earlier work
[4] = system: PBMCs; assay: IFN-γ ELISpot after 2 weeks PBMC culture with single ASPH peptide; type: cell-based, human; details: 5 healthy blood donors HD #1-5
Description: (§1) Epitope-specific T cells were induced according to known methods.^21 Briefly, 2.5×10^5 PBMCs/200 μl X-VIVO 15 medium supplemented with 1 mM L-glutamine, 100 U/ml penicillin, 100 μg/ml streptomycin, and 50 U/ml recombinant human IL-2 (R&D Systems) in round-bottom 96-well plates were cultured for 2 weeks with 10 μg/ml individual peptide. When mature DCs were used as antigen-presenting cells, the T cells were isolated from PBMCs by negative selection using the Pan T Cell Isolation Kit II (Miltenyi Biotec). Regulatory T(reg) cells were removed by the addition of anti-CD25 microbeads (Miltenyi Biotec) where indicated. Treg cell-depleted or non-depleted T lymphocytes (2.4×10^6) were co-cultured for 8 days with 4×10^4 mature DCs loaded with relevant antigen in 24-well plates.^11
Human IFN-γ enzyme-linked immunospot (ELISpot) assays were performed as we described previously using a kit purchased from eBioscience (San Diego, Calif.) to determine T cell immune-reactivity.^21 Cells (5×10^4/well) were added to ELISpot plates (Millipore, Bedford, Mass.) pre-coated with anti-IFN-γ capture antibody and incubated with peptides (10 μg/ml) for 20 hours. […] The plates were developed by adding substrate, 3-amino-9-ethyl carbazole, and the number of spots/well was quantified using a CTL-immunospot S5 UV Analyzer (Cellular Technology Limited, Shaker Heights, Ohio).

[5] = system: PBMCs (CD4+ T cells); assay: Flow cytometric analysis of peptide-cultured PBMCs (IFN-γ+CD4+, CD154); type: cell-based, human; details: PBMCs of HD #1
Description: FIG. 3A is a histogram, FIGS. 3B and C are bar graphs, and FIG. 3D is a line graph. Characterization of ASPH peptide-specific T cell responses. PBMCs obtained from patient HD #1 were cultured with the ASPH peptides indicated. After 2 weeks incubation, the cells were collected and re-cultured with the corresponding peptides for 20 hours, followed by analyses. p52-reactive PBMCs were stained and the percentage of IFN-γ^+CD4^+ T cells was determined by flow cytometric analysis (FIG. 3A). The percentage of CD154-expressing CD4^+ T cells assessed by flow cytometric analysis was determined as a measure of the response of cells to the ASPH peptide listed in accordance with Table I (FIG. 3B). […] PBMCs cultured 2 weeks with the peptides listed were not treated or pretreated with anti-HLA-A,B,C or anti-HLA-DR for 1 hour; the same corresponding peptide (10 μg/ml) was then added and IFN-γ in the culture supernates collected after 5 days was quantified by ELISA (FIG. 3C). […] PBMCs, cultured 2 weeks with the ASPH peptides listed, were collected and reincubated with increasing concentrations of the same peptide. IFN-γ in the culture supernates collected after 5 days was quantified by standard ELISA. […]

[6] = system: pan T cells purified from PBMCs (CD4+ T cells, CD8+ CTLs); assay: T cell activation by co-culture with antigen-loaded monocyte-derived DCs, flow cytometric analysis; type: cell-based, human
Description: DCs were generated using known methods.^11,20 Monocytes were isolated from PBMCs using anti-CD14 microbeads (Miltenyi Biotec, Auburn, Calif.) and cultured for 5 days in X-VIVO 15 medium (Lonza, Walkerville, Md.) supplemented with human GM-CSF (R&D Systems, Minneapolis, Minn.) and IL-4 (R&D Systems). ASPH (1 μg/ml) was added on day 5. On the next day, TNF-α (R&D Systems) was added to stimulate DC maturation and the cells were incubated for another 48 hours. DCs incubated with α-fetoprotein (AFP; Zynaxis Cell Science, Malvern, Pa.) or alone served as the control. Mature, epitope-expressing DCs were collected at the end of the incubation period and used in the experiments described.
as §1
Flow cytometric analysis was conducted.^11 Intracellular cytokine staining was performed to evaluate T cell activation. Conjugated mouse monoclonal antibodies specific for the following determinants were used: CD4 (clone OKT4; BioLegend, San Diego, Calif.), CD8a (clone RPA-T8; BioLegend), CD137 (clone 4B4-1; BD Biosciences, San Diego, Calif.), CD154 (clone TRAP1; BD Biosciences), and IFN-γ (clone B27; BD Biosciences). Appropriate isotype controls were included in each analysis.
Experiments were undertaken to determine the capacity of ASPH to activate CD8^+ CTLs, as well as helper CD4^+ T cells, contained in the PBMC populations derived from HCC patients. The experimental procedure for evaluating ASPH-specific T cell activation was optimized using PBMCs derived from a healthy donor.^11 Pan T cells were co-cultured with autologous, ASPH-pulsed DCs; T cells co-incubated with AFP-pulsed or non-pulsed DCs served as controls. After 8 days culture, the T cells were collected and re-incubated with freshly prepared DCs pre-loaded with the same antigen; antigen-specific T cell activation was evaluated by flow cytometric analysis. […] Moreover, they support the premise that immunization with ASPH activates protein-specific CD4^+ and CD8^+ T cells in HCC patients.

[7] = HCC patients #1-5, ASPH-pulsed vs AFP-pulsed or non-pulsed DCs

Molecule: O=P1(N(CCCl)CCCl)NCCCO1 (centres unmarked) [cyclophosphamide]
- Treg cell function, immune response and tumor eradication [1]: suppressed Treg cell function and augmented the immune response and tumor eradication
- number and inhibitory activity of Treg cells [2]: decrease the number and inhibitory activity of Treg cells

Molecule: CNC(=O)c1cc(Oc2ccc(NC(=O)Nc3ccc(Cl)c(C(F)(F)F)c3)cc2)ccn1 [sorafenib]
- Treg cell function and anti-tumor immunity [3]: reduced Treg cell function and enhanced anti-tumor immunity

Molecule: QKAKVKKKKPKLLNKF (p322) [ASPH AA 322-337, HLA-DRB1-restricted]
- healthy blood donors for whom the peptide was immunogenic [4]: 5 donors

Molecule: TSFFTWFMVIALLGVWTSVA (p52) [ASPH AA 52-71, HLA-DRB1-restricted]
- peptide-reactive IFN-γ-producing cells that expressed CD4 [5]: essentially all

B1: ASPH: Full-length human ASPH recombinant protein produced in a Baculovirus system, loaded on monocyte-derived DCs (protein, listed as Homo sapiens)
chain: MAQRKNAKSSGNSSSSGSGSGSTSAGSSSPGARRETKHGGHKNGRKGGLSGTSFFTWFMVIALLGVWTSVAVVWFDLVDYEEVLGKLGIYDADGDGDFDVDDAKVLLGLKERSTSEPAVPPEEAEPHTEPEEQVPVEAEPQNIEDEAKEQIQSLLHEMVHAEHVEGEDLQQEDGPTGEPQQEDDEFLMATDVDDRFETLEPEVSHEETEHSYHVEETVSQDCNQDMEEMMSEQENPDSSEPVVEDERLHHDTDDVTYQVYEEQAVYEPLENEGIEITEVTAPPEDNPVEDSQVIVEEVSIFPVEEQQEVPPETNRKTDDPEQKAKVKKKKPKLLNKFDKTIKAELDAAEKLRKRGKIEEAVNAFKELVRKYPQSPRARYGKAQCEDDLAEKRRSNEVLRGAIETYQEVASLPDVPADLLKLSLKRRSDRQQFLGHMRGSLLTLQRLVQLFPNDTSLKNDLGVGYLLIGDNDNAKKVYEEVLSVTPNDGFAKVHYGFILKAQNKIAESIPYLKEGIESGDPGTDDGRFYFHLGDAMQRVGNKEAYKWYELGHKRGHFASVWQRSLYNVNGLKAQPWWTPKETGYTELVKSLERNWKLIRDEGLAVMDKAKGLFLPEDENLREKGDWSQFTLWQQGRRNENACKGAPKTCTLLEKFPETTGCRRGQIKYSIMHPGTHVWPHTGPTNCRLRMHLGLVIPKEGCKIRCANETRTWEEGKVLIFDDSFEHEVWQDASSFRLIFIVDVWHPELTPQQRRSLPAI
- CD4+ T cells expressing both IFN-γ and CD154 ([6]; HCC patients #1-5): expanded significantly
- CD4+CD154+ and CD4+IFN-γ+ T cells [6, 7]: significant increases
- percentage of CD8+ CTLs expressing CD137 and IFN-γ [6, 7]: significantly higher
- percentages of responsive cells vs AFP sample or antigen control ([6]; HCC patients, FIGS. 1B and 1D, p<0.05): significantly greater
- ASPH-specific T cell activation after Treg cell depletion ([6]; anti-CD25 microbeads prior to co-culture): enhanced
- activation of both CD4+ T cells and CTLs ([6]; healthy donor HD #1, ASPH-pulsed DCs compared to AFP or no antigen): significant increases
